Reference: paper doi:10.1101/2023.05.29.542777

Key:
Assay in all cases: co-IP
[1] = molecular target: TbTim10-2X-Myc (T. brucei)
[2] = molecular target: TbTim12-3X-HA (T. brucei)
[3] = molecular target: TbTim8/13-3X-HA (T. brucei)
[4] = molecular target: TbTim13-3X-HA (T. brucei)
[5] = molecular target: TbTim10-3X-HA (T. brucei)
TbTim9-3X-HA (T. brucei) = molecular target: TbTim9-3X-HA (T. brucei)

TbTim9-3X-HA (natural protein) gave a percent of the input co-precipitated (% of the input) [1] of 35.

Substance TbTim8/13-3X-HA (natural protein) has a percent of the input co-precipitated (% of the input) [1] of 45.

With TbTim10-2X-Myc (natural protein) the percent of the input co-precipitated [2] was less than 10%, the percent of the input co-precipitated (% of the input) [3] was 60 and the percent of the input co-precipitated [4] was less than 10%. For the same substance, the percent of the input co-precipitated [5] was less than 10% and the percent of the input co-precipitated (% of the input) (TbTim9-3X-HA (T. brucei)) was 60.

Work on TbTim12-3X-HA (natural protein) yielded a percent of the input co-precipitated (% of the input) [1] of 25.

With TbTim10-3X-HA (natural protein) the percent of the input co-precipitated (% of the input) [1] was 30.
